According to the DeepSol protein solubility set:

assay: soluble on expression in E. coli; label from the status in PepcDB or PDB records

**Q.** Which “soluble on expression in E. coli” value does the source give for “MGSDKIHHHHHHMPFSSAALHALLQPGVSERWQAVQRLLHPEMLVLANRAAERAAALLPQQWPLYELSFKSRRAIDRGGGRRDPITDYWFAFDRPPRGAGVMLTVSGIERTVTVGLQLWGVRRPQLAHLWSQARPVWEALIDRIEHEGQARFAGRRPPMTGMRWIDHYLNSRAHYLWAGFVYDWNALPTAERLIDDICALLPLNEALMEQAEIDLATTNTLRETPARYLTGAPSVAQIVMSIKRRGMIIDERTLHAFHLAVQARPLVILAGPSGSGKTWLTRLYADALIGIGEGQPNPCYLLVAVQPDWHSARDLLGYYNSLTGLYQPTPFLNFLLKAAADPDQTYIVCLDEMNLARPEYYLAPILSAMEAVEGLIDLGTPLAETPLAGGGVVRNPIRLPINLRLIGTINVDESTFALSDKVLDRANLIELGTVDMAALALTVSDSKRSGLADIERHPAPPDCCRKAGRLPRLARDTWLRWAGNRYERFRSTRSSDSAAPATALAR” here?
**A.** not soluble

**Q.** With “MGSDKIHHHHHHMPGFNSSPASEKSSLLRQHFPLVTIPEYNSWDPDIAYIQLEQAILPLLNQGVLLTGSSLGGFWAYQFACRYRQPCLLINPCMHPELSLQRYIGKVENFYSHEQGWLTEAHLGKYAAYRVNGQPSRLTVLHEQGDELIPYMESVVNFSGKAKLILPGGGHHRFARTDLIAACIRDMLPPEDAGHQKA” as the sequence, how does the “soluble on expression in E. coli” value read?
**A.** not soluble

**Q.** For “MGSDKIHHHHHHMPGGGNGILYSNLAAVKEMKMNNLRVVIITGLSGSGKSTALRALEDIGFYCVDNMPVVLLPQFLEIQSDKSKDISQVAMVMDLREKSFIETYKGIFEQIKARGYKIEIVFLYATDDALLHRFSETRRVHPLSSVSIMEGIRLEREQLRALEEMADKVIDTTSCNVHQLKDIVQRHFLPSSTARRLFIHLISFGYRYGLPADADLVLDVRFLPNPYWVESLKSFNGHHQDVRRYVLSAEASSIFLQKLFDLMEFLIPLYEKEGKPRITIAVGCTGGKHRSVVMANELWSYFSGRDYPVNVNHRDVGKS”, which “soluble on expression in E. coli” value is on record?
**A.** not soluble

**Q.** For “MGSDKIHHHHHHMPGWAGYYLEFHGNAYSAPFSADIYINVAYPYDGKLVELGGSILGHNQYFYVKSPYTFPDNVHNVDGYVVEWFDEDWQKWVLWHVSYKPALQVIGCPYVSTWNGIEYVPENTVLVESEILKPRKHMDLTDYYLINNSHTIRENIYSIQLQEFEQDTSYIDSIELLVVDYPQGLELSLDPQGNIVLYIPIHTRLNTRFTTEIASSNVNRLKTDLVIVSPYVKTSYSFKVNKVYENKSVESIHLYPRMFPYRYALFTDKDISKLKMELNDHKLYSIEYGIPVNASYHIVKEKPLLATSDIGGEITEELLEDDGHYAVLTPGDNITLNFKVPPALSSRMKRALILVIKGFYVQKPPTLTKDAVRVIYVPEINGYLFVPLLETYDEILSIMWDFGDGTTSDFFVPFHVYKQGKYKGSLKVKYLNGKTLTIPFYWGG”, which “soluble on expression in E. coli” value is on record?
**A.** not soluble

**Q.** Which “soluble on expression in E. coli” value does the source give for “MGSDKIHHHHHHMPHPYHERLNFKTELPLRVISHGTVGPKMVLPHWHRAVELAYAYRGQPGTAHIGRSTYHMLADHLYVINSEVVHSYETFLDEDNQIVTLLLPASWLRNAVADEQLPIWGPLDLDLQSAVYQPLAKAVQTLVAGVITPSSARSAYLTSLGAEYQLVGQLLKHLTVNGQVTSDQLPLPAPLRQAVTELQENYAQPVSIANLAEQLNYSSVYFSRYFKDYMGISPKAYLGQIRLERATSLLMTSQDSIQNIALKTGFSTEKNFFVTFKQYYQMTPRTYRQRYSAQQSWS” here?
**A.** not soluble

**Q.** Which “soluble on expression in E. coli” value does the source give for “MGSDKIHHHHHHMPHYDVVDTSNNNGIMTVANWRSMKKYGVKAMIAKLSEGTYFTDQTAKPSIRNAITAGLHVNGYHFARFTTETGAKAEAQMAARSALKAGLGKSSVIVLDFEATNSGWNQNSKIVKAWINEVHRMGYPKTDVYTMGSWINSVPLNNSGRGGWVANYPYNPSGFKLYTGYNGWQWTSSMHFPGCYGGFDVSQMYSNYYYGTTTHVAKPKKAIYYRYNPKMIYARTPINRYKDVAFKHKVDNFPAGTVFAIAKVINYGKITRFQLANGYYITSNQTNVNRLYYSVDGGVKRVKSVRGTHRYKDKALKHVVDWQPAETEFDVAKIVKYGDTTRIQLANGLFISGNKKINKFVK” here?
**A.** not soluble

**Q.** With “MGSDKIHHHHHHMPINSYENYVLSWRPVKERLTRPYYQSLVQQLEADILSGALQKNVKLPSQRELADYLDLNFTTIGQAYKHAMEKGLLYTNIGCGTFVSPNAFHSITISTNQVADHLIDLGLVSSFDMCNQRILPFIESVSKNAALNSLLNYRDPLGTHFQRATAAEWLQTQGVRTNAEEVAIVSGVQNGLAVTLAAAFSPGQRIAVDRYTYSNFIELAQLYHLEIVPIGYDSEGMDPEHLLQECKKKKIHGIFLMPACNNPIGFQMSSARRMTLAEIIQQEHLWVIEDDIHSFLTTYAQQAVLPTFQELLPQQTIYLAGMTKFVCTGLRIAYLVFPPLLRQEIERAIFNINVKTSGFDAEIVTQVLRSPVAKELVIEKLALTKQANDLFDTIFGLARPSNPLPYYRTIPLSTEKTAPQIEQEFLQNGVRLFHSSRFTVQNQPDAFLRISLASNQLEVLAKGLTIIQELLPTLNEKKGHSL” as the sequence, how does the “soluble on expression in E. coli” value read?
**A.** not soluble

**Q.** For “MGSDKIHHHHHHMPKLASIAPSMESTRPLLQPITVVNRQLQAHCHVMSHSHLWGQFVYASQGVLAVNTPAARYLVTPEQGVWVNSNISHSVTAITEVRLTSFYLDESQCQALPEQSCVLNVAPFLHALIQEARLIPSDFDWQGPRGRLLRLIRDWLSEAKNAPFHLPYSSHPKLMQLFGELQNNPANQDNIATWGQRLGASSRTLSRLIKAETGLSYRHWRQRLNLQLSLSLLAQGHSINHIADSLGYASPSAFIHMFKQQTGDSPARYRK”, which “soluble on expression in E. coli” value is on record?
**A.** not soluble

**Q.** Which “soluble on expression in E. coli” value does the source give for “MGSDKIHHHHHHMPKVLHVADVHLGARPYGLEERRDDIFRSFEFVVETALKDRPDAVLIAGDLFDKPKLPLRDVKQAVELVRALTDAGIPVLAAHGEHDTPSVRDETLLSLMEASLDGFKAPLYRSGMRPGDFVVDLGSLKVAVVPFFKVPLEERRRLTLRFLREFDQISRTSSGTLVLLAHMSLDAEMQFDAVASPSDLPSGAKYAALGHLHAPRIRLDAPTPYAYPGVLDPLKVEEINTPGSPLYVDLSGDAPIIEKVKVPRRPQYRIEVDIGDGGSIYNAVNRGLRRVLANVRASREDWLKPLIHVIIKSDKPISKARVIAEARKAAGGADVLLKIHWKIVAGGEHAGTSPGLQGEGPLDLAKIAAEYYKIPLNAASTILHDLAEAAAEKDELRVREILETLATTVSQDTWKRILYMR” here?
**A.** not soluble

**Q.** For “MGSDKIHHHHHHMPQLQTNNTALSTQQSAEMKTTRLLKVLKIMFPRENWTSQKLTSEVNVKGSGVYRFEHGTIAHLGQPGGPRTEHLWEMTVDRVWAKALIEAHNQAQESEALVRTQAEVYPKDWYGLRLRSPAEAAIAEALQTKGVLFFVNTGCRLHNHSKQYETREVDFLVFHQGKVRILEVDGITYHQNPLADYKRDRLFDREGIRTSRFSAQECFENPNGVVEEFLGLFKF”, which “soluble on expression in E. coli” value is on record?
**A.** not soluble

**Q.** Which “soluble on expression in E. coli” value does the source give for “MGSDKIHHHHHHMPRYQHIARQLKTAIEQGELAPGTRLPSSRTWAQELGVSRATVENAYGELVAQGWLERRGQAGTFVSNALRFETAPPIPAVFAGESPEPKPFQMGLPALDLFPREKWARVMGRRLRTQTCFDLALGDVCGEAILRQAIVDYLRVSRSIECLPEQVFITSGYADSMRLILRTLSVPGDSMWVEDPGFPLIRPVITQEGITLAPIPVDADGLNVAAGMRDCPQGRFALVTPAHQSPLGVALSLTRRRQLLAWAANVQAWIIEDDYDSEFRYHGKPLPPLKSLDAPQRVIYAGTFSKSLFPALRTAWLVVPIKQIEHFRQQASLMPCSVPLLWQHTLADFIRDGHFWRHLKKMRQHYAQRRLWIEEALAEQGFVVTLQKGGIQLVIEVEGDDKAQVAKANQAGLAVQALSRWRVVSSGKGGILLSFTNITSAGMAKQVACQLRQAIQ” here?
**A.** not soluble

**Q.** Which “soluble on expression in E. coli” value does the source give for “MGSDKIHHHHHHMPSETRLPNFIRTLIFALSFIFLNACSEQTAQTVTLQGETMGTTYTVKYLSNNRDKLPSPAEIQKRIDDALKEVNRQMSTYQPDSEISRFNQHTAGKPLRISSDFAHVTAEAVHLNRLTHGALDVTVGPLVNLWGFGPDKSVTREPSPEQIKQAASYTGIDKIILKQGKDYASLSKTHPKAYLDLSSIAKGFGVDKVAGELEKYGIQNYLVEIGGELHGKGKNARGEPWRIGIEQPNIVQGGNTQIIVPLNNRSLATSGDYRIFHVDKSGKRLSHIINPNNKRPISHNLASISVVADSAMTADGLSTGLFVLGETEALKLAEREKLAVFLIVRDKGGYRTAMSSEFEKLLR” here?
**A.** not soluble

**Q.** With “MGSDKIHHHHHHMPSVKIGIIGAGSAVFSLRLVSDLCKTPGLSGSTVTLMDIDEERLDAILTIAKKYVEEVGADLKFEKTMNLDDVIIDADFVINTAMVGGHTYLEKVRQIGEKYGYYRGIDAQEFNMVSDYYTFSNYNQLKYFVDIARKIEKLSPKAWYLQAANPIFEGTTLVTRTVPIKAVGFCHGHYGVMEIVEKLGLEEEKVDWQVAGVNHGIWLNRFRYNGGNAYPLLDKWIEEKSKDWKPENPFNDQLSPAAIDMYRFYGVMPIGDTVRNSSWRYHRDLETKKKWYGEPWGGADSEIGWKWYQDTLGKVTEITKKVAKFIKENPSVRLSDLGSVLGKDLSEKQFVLEVEKILDPERKSGEQHIPFIDALLNDNKARFVVNIPNKGIIHGIDDDVVVEVPALVDKNGIHPEKIEPPLPDRVVKYYLRPRIMRMEMALEAFLTGDIRIIKELLYRDPRTKSDEQVEKVIEEILALPENEEMRKHYLKR” as the sequence, how does the “soluble on expression in E. coli” value read?
**A.** not soluble

**Q.** For “MGSDKIHHHHHHMPTIAEKLKSRESDLTRAERQLSAAILDNYPIPGLGSITELAELAEVSTPTVARMVQKLGFSGYPEFQHALREELREIISNPVEKRAEQAPELPEGHMLNRYAVAVYDNIRATLENVNLEEFDTLCALLADTNSRVHIAGGRLSGTLAQNFYLHLQMIRRDVFMIPPRASWTHSVLDLLPGDTLILFDIRRYENATLLLAEMAHERGVKVVLFTDQWRSPIQKEATFTFAARIAVPSAWDSGVALLLLIESMIAKIQEDHWDTVKARNDELEAAFDRTRLFRKFT”, which “soluble on expression in E. coli” value is on record?
**A.** not soluble

**Q.** Which “soluble on expression in E. coli” value does the source give for “MGSDKIHHHHHHMPTLIERIHQVELGNLTQLDQLCHQLGLPYFLMGGSLLGAIRHQGFIPWDDDVDVGLLRADYDQLLAAAPTHLADSPYFLQTPTSDENYGLSYAKLLDRRTYIEEKRNVNNARKGIFIDIFPLDRIPQDTSAQQKQSTKFQLLNTRILLQLRYHLVDNPLRKLQGPLSSEQLTSVNALKAERQAVMTQYQAEITLPQVKNLSSQYAYAKEVFTVAELSDLTTVPFEHLQVQVPRNYATILTRMYGDYLALPPENQRTKKHLERVIMDNQVFTD” here?
**A.** not soluble

**Q.** With “MGSDKIHHHHHHMPVNIKQLAQEFDKKEIGITQGHRLCPGCGAPITVKFVMMIARHLGYEPVVGLATGCLEVSTSIYPYTAWSVPYIHNAFENVAATMSGVETAYKALKNKGKIPEDKKYAFIAFGGDGGTYDIGLQSLSGMLERGHKVLYVLYDNEGYMNTGNQRSGSTPPGSDTTTAPVGKKLPGKVQLKKNIVEIVAAHENVYAATASLSEPMDFFAKVEKALNFDGPSFLAVFSPCVRFWRVNDDKTVEISKLAVETKYWPLYEVERGVYRVTRKPRQFKPVEEFLKAQGRFRKLLSRPDAKEIVDELQEYVDRRWERLLTLEEVTKDKPIR” as the sequence, how does the “soluble on expression in E. coli” value read?
**A.** not soluble

**Q.** For “MGSDKIHHHHHHMPYFERDGYYIDRCPECRFVYVRNVPSDGTLAAFYSGYYGDVNEFVPVSRKRLSKRFSKSVENWWHARNLVRCAAGRRKLLEIGYGEGHLLMALKQTRRFELRGIDYATGPMAYMSANGIDVAQGSLFDQHYPDNRFEFIVGFHVLEHVQHLGEFMSEVRRVLAPAGRVYFVVPCVTHFSAVRRRQNWKHFGPPGHLWYFSVTAMRRFMTDQDFKVVSAHCISNRTHLTVLAEKTS”, which “soluble on expression in E. coli” value is on record?
**A.** not soluble
